The data set in a line: label from the status in PepcDB records.
For the sequence “MKFGEHLSKSLIRQYSYYYISYDDLKTELEDNLSKNNGQWTQELETDFLESLEIELDKVYTFCKVKHSEVFRRVKEVQEQVQHTVRLLDSNNPPTQLDFEILEEELSDIIADVHDLAKFSRLNYTGFQKIIKKHDKKTGFILKPVFQVRLDSKPFFKENYDELVVKISQLYDIARTSGRPIKGDSSAGGKQQNFVRQTTKYWVHPDNITELKLIILKHLPVLVFNTNKEFEREDSAITSIYFDNENLDLYYGRLRKDEGAEAHRLRWYGGMSTDTIFVERKTHREDWTGEKSVKARFALKERHVNDFLKGKYTVDQVFAKMRKEGKKPMNEIENLEALASEIQYVMLKKKLRPVVRSFYNRTAFQLPGDARVRISLDTELTMVREDNFDGVDRTHKNWRRTDIGVDWPFKQLDDKDICRFPYAVLEVKLQTQLGQEPPEWVRELVGSHLVEPVPKFSKFIHGVATLLNDKVDSIPFWLPQMDVDIRKPPLPTNIEITRPGRSDNEDNDFDEDDEDDAALVAAMTNAPGNSLDIEESVGYGATSAPTSNTNHVVESANAAYYQRKIRNAENPISKKYYEIVAFFDHYFNGDQISKIPKGTTFDTQIRAPPGKTICVPVRVEPKVYFATERTYLSWLSISILLGGVSTTLLTYGSPTAMIGSIGFFITSLAVLIRTVMVYAKRVVNIRLKRAVDYEDKIGPGMVSVFLILSILFSFFCNLVAK”, the protein production result was “failed”.
For “QTEGLETVHIKGQRSYNAIATEKNGDYSSFAATVGTKIPASLREIPQSVSIITNQQVKDRNVDTFDQLARKTPGLRVLSNDDGRSSVYARGYEYSEYNIDGLPAQMQSINGTLPNLFAFDRVEVMRGPSGLFDSSGEMGGIVNLVRKRPTKAFQGHAAAGFGTHKQYKAEADVSGSLNSDGSVRGRVMAQTVGASPRPAEKNNRRETFYAAADWDINPDTVLGAGYLYQQRRLAPYNGLPADANNKLPSLPQHVFVGADWNKFKMHSHDVFADLKHYFGNGGYGKVGMRYSDRKADSNYTFAGSKLNNTGQADVAGLGTDIKQKAFAVDASYSRPFALGNTANEFVIGADYNRLRSTNEQGRSTLSKSVALDGFRALPYNGILQNARAGNKGFNHSVTEENLDETGLYAKTVFRPLEGLSLIAGGRVGHHKIESGDGKTLHKASKTKFTSYAGAVYDIDGSNSLYASASQLYTPQTSIGTDGKLLKPREGNQFEIGYKGSYMDDRLNTRVSFYRMKDKNAAAPLDSNNKKTRYAALGKRVMEGVETEISGAMTPKWQIHAGYSYLHSQIKTASNSRDEGIFLLMPKHSANLWTTYQVTSGLTIGGGVNA”, the protein production result is reported as “failed”.
The result for “MGHHHHHHSHMSFVECPYHSPAERLVAEADEGGPSAITGMGLCFRCLLFSFSGRSGVEGGRVDLNVFGSLGLQPWIGSSRCWGGPCSSALRCGWFSSWPPPSKSAIPIGGGSRGAGRVSRWPPPHWLEAWRVSPRPL” reads “failed”.
For “MPVGGLLPLFSSPGGGGLGSGLGGGLGGGRKGSGPAAFRLTEKFVLLLVFSAFITLCFGAIFFLPDSSKLLSGVLFHSNPALQPPAEHKPGLGARAEDAAEGRVRHREEGAPGDPGAGLEDNLARIRENHERALREAKETLQKLPEEIQRDILLEKEKVAQDQLRDKDLFRGLPKVDFLPPVGVENREPADATIREKRAKIKEMMTHAWNNYKRYAWGLNELKPISKEGHSSSLFGNIKGATIVDALDTLFIMGMKTEFQEAKSWIKKYLDFNVNAEVSVFEVNIRFVGGLLSAYYLSGEEIFRKKAVELGVKLLPAFHTPSGIPWALLNMKSGIGRNWPWASGGSSILAEFGTLHLEFMHLSHLSGDPVFAEKVMKIRTVLNKLDKPEGLYPNYLNPSSGQWGQHHVSVGGLGDSFYEYLLKAWLMSDKTDLEAKKMYFDAVQAIETHLIRKSSGGLTYIAEWKGGLLEHKMGHLTCFAGGMFALGADGAPEARAQHYLELGAEIARTCHESYNRTYVKLGPEAFRFDGGVEAIATRQNEKYYILRPEVIETYMYMWRLTHDPKYRTWAWEAVEALESHCRVNGGYSGLRDVYIARESYDDVQQSFFLAETLKYLYLIFSDDDLLPLEHWIFNTEAHPFPILREQKKEIDGKEK”, the protein production entry is listed as “not failed”.
Take “MSLAEFRAQYLVRFWSPIPALLALGVASAYYFAITGTFWAVTGEFTRWGGHIAALLGFSPQQWSYFQLIGLNGSPLERIDGVMIIGMFAGALCAALWAGNVQLRWPTSRRRLAQGLIGGIIAGFGARLAMGCNLAAFFTGIPMFSLHAWAFMLTTVIGAWIGVKLCLLPFLRTPLRLDTAPSSLFADTASLARRARLQNRLGLLIAVLVLGFAAWRFETSLVLGLAVLFGVFFGAVIERGQICFTSAARDLWTTGRTRIAYGILLGMVVACLGTFGAIALGATPKIFWMGPNAALGGLLFGIGIVLAGGCETGWMYRAMEGQVHFWIVGIGNVIGGTLVAIFWDELGGTLALPYPKINLLEYLGAGTGLLLSLAGLMLAMLLVYLNARRFAVREGLAR”: the protein production entry is listed as “failed”.
Regarding “MQKGNIRIAIDKGGTFTDCVGNIGTGKQEHDTVIKLLSVDPKNYPDAPLEGIRRLLEVLEHKTIPRGIPLDISNVRSLRMGTTLATNCALERNGERCAFITTKGFKDSLLIGDQTRPDIFNLNIKKVVPLYDTVVEIDERVTLEDFSEDPYFTKSSPNEQEGILEGNSGEMVRVIKKPDESSVRSILKVLYASGIKSIAIAFLHSYTFPDHERIVGNIAREIGFSHVSLSSEVSPMIKFLPRAHSSVADAYLTPVIKKYLNSISAGLSHAEDTHIQFMQSDGGLVDGGKFSGLKSILSGPAGGVIGYSSTCYDKNNNIPLIGFDMGGTSTDVSRYGDGRLEHVFETVTAGIIIQSPQLDIHTVAAGGSSILSWKNGLFRVGPDSAAADPGPAAYRKGGPLTITDANLFLGRLVPEFFPKIFGPNEDESLDLETTTLKFRELTDVINKDLNSNLTMEEVAYGFIKVANECMARPVRAITEAKGHVVSQHRLVSFGGAGGQHAIAVADSLGIDTVLIHRYSSILSAYGIFLADVIEENQEPCSFILGEPETILKVKKRFLELSKNSIKNLLSQSFSREDIVLERYLNLRYEGTETSLMILQKYDDQWNFREWFSEAHKKEFGFSFDDKRIIIDDIRIRAIGKSGVRKEKTVDEQLIEISHFKKADVSKDASFTQKAYFDNKWVDTAVFKIDDLPAGTIIEGPAILADGTQTNIILPNSQATILNSHIFIKINQKAAKTLSKSGYELDIDPILLSIFSHRFMDIALQMGTQLRKTSVSTNVKERLDFSCALFDSKGNLVANAPHVPVHLGSMSTCISAQAKLWEGKLKPGDVLITNHPDIGGTHLPDITVITPSFSSTGELIFYVASRAHHADIGGILPGSVPPNSKELYEEGTAIYSELVVKEGIFQEELIYKLFVEDPGKYPGCSGSRRFSDNISDLKAQVAANTKGIQLIGSLTKEYDLATILKYMAAIQTNASESIKKMLAKMVEHFGTTKFSGEDRLDDGSLIKLQVIIRPEKEEYIFNFDGTSPQVYGNLNAPEAITNSAILYCLRCLVGEDIPLNQGCLKPLTIKIPAGSLLSPRSGAAVVGGNVLTSQRVTDVILKTFNVMADSQGDCNNFTFGTGGNSGNKTDKQIKGFGYYETICGGSGAGADSWRGSGWNGSDAVHTNMTNTRMTDTEVFERRYPVLLKEFSIRRGSGGKGKYTGGNGVVRDVQFRKAVTASILSERRVIGPHGIKGGQDGSRGENLWVRHSTGALINVGGKNTIYAQPGDRFIIKTPGGGGFGQYKD”, the protein production result is recorded as “failed”.
The entry for “DYSQKLQNLISEQLVGCGFNEILNNSLTAASYYEGSETYKNENLVYLMNPLSNDLNVMRQTLLFGGLESIQHNANRKNADLKFFEFGNCYFYNAEKKNPEKVLAAYAEEYHLGLWVTGKRVSNSWAHPDENSSVYELKAYVLNIFTRLGLNFGNVVFGNLTNDIYSTAISVHTRGGKLLATFGIISKKIQKAFDIDNEVYYAEINWKELM” is “not failed”.
The entry for “MAIETAILEKIKQYQTIIIHRHQRPDPDCIGSQLALRAILRASFPEKTVVAVGKHYPGFDWMGQADQEVSDDTYHQALVIVVDTANQPRVDDERWQTGAAVIKIDHHPNDDAFGDLQWVLPQASSTSEIIYDWFEANHADLTMPDDAARLLYAGIVGDTGRFMYPATSANTFAVAGKLLAYDFSMTAVNQAEDEISPEMARLSAYAYQNLEILPSGAAYLKLTDEIVESFGLAASDSTSAIVPLPGKITSVVAWAIFVESKDKTFRVRLRSKGPSINELAKRHGGGGHALASGAAAKDQAEIDQVIHELDQLVADTKGENELEHHHHHH” is “not failed”; for “MNISLSRVHFPVTTLGPGQRLGLWFQGCSIRCAGCISADTWGPGKHPLPLAQVLDDLQPWLARAEGITLSGGEPFDQPEALLALLRGLRERTGVDILVYSGHSLETLQPLLQQAEGLLDALICDPFEQQQAQTLVLRGSDNQRLIFLTELGRQRLSTYQRPLHHEDRALDVMFDDDGSVWMAGIPRRDDVLRLRDLLHDQGHQLQISAHTSRRRLEHHHHHH” it is “failed”; for “MRAKKRKFLQKEELSKLLQSLDMSQIGFGWFVMLAAKTGMRYAEALAITPADFDWTAQTISINKTWDYKYNKGFAKTKTLSSVRTIKIDWQIVGQFKPLIKDFPEDEPIFVEKFGDGTYKRQFNSTINNFLAVKCNETGITQISFHALRHTHASVLLAEGVSIHTISARLGHADVGVTQETYAHVLDELQKKDDQKMLSVLMQIALEHHHHHH” it is “not failed”.
Regarding “RKFEGMKTVQLICIKMSCIMLFFVSGYAKGTQEEHTMQFGEEKTTYLLHLPKGYIQGKAYSLVVNFHGLGSAAIKHQHYCQLDAVADKEGFIAVYPQSYHQGWNAGLGFTSYIQGHDDIAYFNALLDTLEAAYSIDKNRIYVTGVSLGGSFTYRIACEMSKRIAAIASVSGLMSDSTLIYCTPERSVPVMHIHGTKDHIMRYTGMKQAFGAEEVVRLWALKDQCENKPDTVFVPNTSKKDHTSSILIKYTHCANGSEVWFYKIYNGGHTWPGAAKAFKLMGRKSKDFNG”, the protein production entry was “failed”.
As to “MGAATRVAPMTAAASSTKAWLMAARPQTLPAGAAPVIVGTGLAVYHGVFAPLPALFALFGALLLQIGTNFANDYYDAVRGADTEDRDGFTRVTAGGLIEPAAVKRAMYATFGLSMVIGLYLVAVGGVPILVVGLASIVAGITYSGGPLPYGYRGLGDLFVFVFFGLVAVAGTYYVQAAAHGGWFPLWIPEGTLPAAAVVAGLPAAGFSTAILVVNNIRDRETDAEAGKHTLAVILGYRLSRIEWSLMAGLGYAIPVVFWLDGYPATVLLPLVTAPLAIAIGRTVWNRTDGEALNPALQRTGKLLFAHSVCFALGFAAPAVI”, the protein production result is “failed”.
Take “MEAKLSSIEIPVGQDELSGTLLTPTGMPGVLFVHGWGGSQHHSLVRAREAVGLGCICMTFDLRGHEGYASMRQSVTRAQNLDDIKAAYDQLASLPYVDAHSIAVVGLSYGGYLSALLTRERPVEWLALRSPALYKDAHWDQPKVSLNADPDLMDYRRRALAPGDNLALAACAQYKGDVLLVEAENDVIVPHPVMRNYADAFTNARSLTSRVIAGADHALSVKEHQQEYTRALIDWLTEMVVGRRIALAKEVVAARKQLLKEQQGDAVSLPGQGSREFRGDIRAVEKTSA”: the protein production entry is “not failed”.
With “TRRIMQLVFTDVTKHKEYEETLRKEQQVVQDILDFQSSIVLVAGSDEGVLSANRSALDFFGFRDVKEFRMHYRCICEAFIDREGFLKNRHEAWLHEALLANQTGRDSKAIIKDRHSGEERIFVVKVGRYPRDSHKFIVSLTD”, the protein production result was “failed”.
The result for “MSDAPTSPRFSAATSTRLLDHAQLEALCADYDGFLLDLWGVVMDGTEAFPGALAWLARRHAEGRPVWFLSNSSSSVAEMSAGLERLGIRRDWFAGITTSGQLTIDALLQTAEYRRGGIYLAGVGLAQQSWPAEIRERFVEDIAQAALIVGVGSFPQDELEQRFAPLRGATDLPFLCANPDRVVVSGGRTVYGAGMLAELFSEEGGQVSWYGKPDPAAFRIAQRQLEARGARHILFVGDSLVTDVPGALAARIDTLWLGATGIHREALGAEFNGALDEERVRSLLHGYPIRPHFAAPGLV” reads “failed”; that for “VLTMPLVTSISQLNEPITLVSYTMGNVNGVPVNNVRKEHFTTWALVLSQYLSEVKASVGTKLEDTVTFVVRYDQPETILNSWRIEWQEKQYDIVKLTPDTAKKQWTTIIGKPVANK”, “not failed”.
